Changes are numbered by the printed parent chain. Counter-ions that a name gives are not always drawn.

A short description of data set [1]: oral TGR-1202 under fasted and fed conditions, pharmacokinetics. The note with it: in vivo, 200 mg, single oral dose of 200 mg; for AUC(0-inf): read-out: AUC0-inf, Geometric LS Means; for AUC(0-t): read-out: AUC0-t, Geometric LS Means; for Cmax: read-out: Cmax, Geometric LS Means.
Data set [2] in a line: micronized vs non-micronized TGR-1202 formulations, pharmacokinetics. The note with it: in vivo, po, 200 mg, single oral dose of 200 mg; for AUC(0-inf): read-out: AUC0-inf, Geometric LS Means; for AUC(0-t): read-out: AUC0-t, Geometric LS Means; for Cmax: read-out: Cmax, Geometric LS Means.
The test system of data set [3] is patients with relapsed and refractory hematologic malignancies. The note with it: single agent; relapsed or refractory hematologic malignancies; cited from earlier work.
The target of another data set is PI3K isoforms (Human) α (Homo sapiens, UniProt P42336). The data set can be described thus: biochemical.
Sequence of PI3K isoforms (Human) α (P42336 whole entry, canonical isoform): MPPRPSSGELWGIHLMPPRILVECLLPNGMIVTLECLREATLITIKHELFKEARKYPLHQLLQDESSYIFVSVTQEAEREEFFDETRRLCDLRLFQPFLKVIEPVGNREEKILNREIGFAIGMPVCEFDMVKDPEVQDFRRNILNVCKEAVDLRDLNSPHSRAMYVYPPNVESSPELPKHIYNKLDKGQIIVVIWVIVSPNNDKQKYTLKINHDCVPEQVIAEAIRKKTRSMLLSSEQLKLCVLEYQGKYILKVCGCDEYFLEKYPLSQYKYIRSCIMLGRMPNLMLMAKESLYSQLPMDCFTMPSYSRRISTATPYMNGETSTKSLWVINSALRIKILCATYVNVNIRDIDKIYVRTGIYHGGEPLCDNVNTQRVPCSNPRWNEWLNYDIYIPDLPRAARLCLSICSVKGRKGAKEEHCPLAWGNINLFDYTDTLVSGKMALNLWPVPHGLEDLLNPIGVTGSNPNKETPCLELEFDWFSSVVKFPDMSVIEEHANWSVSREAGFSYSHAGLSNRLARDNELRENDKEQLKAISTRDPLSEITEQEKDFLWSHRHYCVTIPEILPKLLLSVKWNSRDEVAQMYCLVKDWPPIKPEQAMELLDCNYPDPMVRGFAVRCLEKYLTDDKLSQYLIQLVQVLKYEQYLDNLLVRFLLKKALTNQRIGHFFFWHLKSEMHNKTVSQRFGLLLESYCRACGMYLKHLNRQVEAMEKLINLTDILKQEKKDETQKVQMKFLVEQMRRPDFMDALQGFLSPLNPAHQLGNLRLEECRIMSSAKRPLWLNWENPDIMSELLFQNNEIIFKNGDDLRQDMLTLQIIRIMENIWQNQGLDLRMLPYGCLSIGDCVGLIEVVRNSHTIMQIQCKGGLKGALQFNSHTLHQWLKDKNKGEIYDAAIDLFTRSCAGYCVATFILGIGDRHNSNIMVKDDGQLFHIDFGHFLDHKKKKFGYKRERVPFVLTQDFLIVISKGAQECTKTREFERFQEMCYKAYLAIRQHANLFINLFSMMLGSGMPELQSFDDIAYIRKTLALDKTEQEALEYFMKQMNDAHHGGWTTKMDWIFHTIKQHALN
Sequence of PI3K isoforms (Human) α (P27986 whole entry partner, canonical isoform): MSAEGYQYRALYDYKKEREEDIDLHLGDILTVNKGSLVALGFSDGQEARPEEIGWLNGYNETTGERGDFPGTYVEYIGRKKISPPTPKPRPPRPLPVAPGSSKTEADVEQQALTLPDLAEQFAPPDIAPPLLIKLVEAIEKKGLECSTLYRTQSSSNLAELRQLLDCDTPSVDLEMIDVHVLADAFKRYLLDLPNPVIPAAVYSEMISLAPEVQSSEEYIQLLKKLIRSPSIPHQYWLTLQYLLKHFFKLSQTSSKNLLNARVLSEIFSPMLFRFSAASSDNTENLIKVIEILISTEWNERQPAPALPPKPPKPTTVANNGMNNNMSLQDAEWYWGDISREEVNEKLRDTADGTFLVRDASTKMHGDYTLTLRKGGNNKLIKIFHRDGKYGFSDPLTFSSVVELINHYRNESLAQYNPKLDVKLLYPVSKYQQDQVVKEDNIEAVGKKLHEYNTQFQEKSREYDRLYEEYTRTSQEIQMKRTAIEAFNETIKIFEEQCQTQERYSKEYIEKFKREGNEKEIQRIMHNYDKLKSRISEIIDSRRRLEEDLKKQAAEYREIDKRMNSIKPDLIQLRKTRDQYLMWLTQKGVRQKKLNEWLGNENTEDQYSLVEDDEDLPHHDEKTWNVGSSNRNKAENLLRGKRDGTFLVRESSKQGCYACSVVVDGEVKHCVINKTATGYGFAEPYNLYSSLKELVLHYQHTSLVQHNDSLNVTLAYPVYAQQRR
For a further data set, the target named is PI3K isoforms (Human) β (Homo sapiens, UniProt P42338). The data set can be described thus: biochemical.
Sequence of PI3K isoforms (Human) β (P42338 whole entry, canonical isoform): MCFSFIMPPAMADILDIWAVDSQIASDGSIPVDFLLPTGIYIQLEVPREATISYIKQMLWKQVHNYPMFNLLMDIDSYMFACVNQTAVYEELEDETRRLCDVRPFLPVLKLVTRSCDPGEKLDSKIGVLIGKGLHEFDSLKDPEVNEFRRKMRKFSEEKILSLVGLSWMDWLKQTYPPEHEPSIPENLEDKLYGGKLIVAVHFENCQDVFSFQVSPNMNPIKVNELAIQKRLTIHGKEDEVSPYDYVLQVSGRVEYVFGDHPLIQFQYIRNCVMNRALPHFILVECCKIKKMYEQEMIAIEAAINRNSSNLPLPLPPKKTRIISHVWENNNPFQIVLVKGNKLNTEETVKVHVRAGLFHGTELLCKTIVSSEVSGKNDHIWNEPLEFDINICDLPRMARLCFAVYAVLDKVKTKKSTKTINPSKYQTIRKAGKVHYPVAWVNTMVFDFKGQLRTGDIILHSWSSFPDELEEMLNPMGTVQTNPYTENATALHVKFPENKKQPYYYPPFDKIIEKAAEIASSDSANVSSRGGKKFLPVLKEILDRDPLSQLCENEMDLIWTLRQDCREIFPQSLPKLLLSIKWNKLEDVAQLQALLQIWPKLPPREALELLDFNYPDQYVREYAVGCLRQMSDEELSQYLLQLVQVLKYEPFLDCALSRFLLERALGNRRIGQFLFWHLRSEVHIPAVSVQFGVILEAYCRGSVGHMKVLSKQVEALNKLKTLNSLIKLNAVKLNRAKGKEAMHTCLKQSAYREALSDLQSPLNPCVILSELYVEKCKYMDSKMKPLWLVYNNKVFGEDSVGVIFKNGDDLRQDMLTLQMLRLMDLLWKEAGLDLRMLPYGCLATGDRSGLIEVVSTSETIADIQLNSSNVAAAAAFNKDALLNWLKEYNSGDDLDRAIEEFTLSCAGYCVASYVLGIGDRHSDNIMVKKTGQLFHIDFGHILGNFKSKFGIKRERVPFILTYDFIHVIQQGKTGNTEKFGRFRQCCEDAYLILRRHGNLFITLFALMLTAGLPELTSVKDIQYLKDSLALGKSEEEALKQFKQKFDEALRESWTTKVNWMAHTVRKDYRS
Sequence of PI3K isoforms (Human) β (P27986 whole entry partner, canonical isoform): as the sequence (P27986 whole entry partner, canonical isoform) above
The next data set deals with PI3K isoforms (Human) γ (Homo sapiens, UniProt P48736). The data set can be described thus: biochemical.
Sequence of PI3K isoforms (Human) γ (P48736 whole entry, canonical isoform): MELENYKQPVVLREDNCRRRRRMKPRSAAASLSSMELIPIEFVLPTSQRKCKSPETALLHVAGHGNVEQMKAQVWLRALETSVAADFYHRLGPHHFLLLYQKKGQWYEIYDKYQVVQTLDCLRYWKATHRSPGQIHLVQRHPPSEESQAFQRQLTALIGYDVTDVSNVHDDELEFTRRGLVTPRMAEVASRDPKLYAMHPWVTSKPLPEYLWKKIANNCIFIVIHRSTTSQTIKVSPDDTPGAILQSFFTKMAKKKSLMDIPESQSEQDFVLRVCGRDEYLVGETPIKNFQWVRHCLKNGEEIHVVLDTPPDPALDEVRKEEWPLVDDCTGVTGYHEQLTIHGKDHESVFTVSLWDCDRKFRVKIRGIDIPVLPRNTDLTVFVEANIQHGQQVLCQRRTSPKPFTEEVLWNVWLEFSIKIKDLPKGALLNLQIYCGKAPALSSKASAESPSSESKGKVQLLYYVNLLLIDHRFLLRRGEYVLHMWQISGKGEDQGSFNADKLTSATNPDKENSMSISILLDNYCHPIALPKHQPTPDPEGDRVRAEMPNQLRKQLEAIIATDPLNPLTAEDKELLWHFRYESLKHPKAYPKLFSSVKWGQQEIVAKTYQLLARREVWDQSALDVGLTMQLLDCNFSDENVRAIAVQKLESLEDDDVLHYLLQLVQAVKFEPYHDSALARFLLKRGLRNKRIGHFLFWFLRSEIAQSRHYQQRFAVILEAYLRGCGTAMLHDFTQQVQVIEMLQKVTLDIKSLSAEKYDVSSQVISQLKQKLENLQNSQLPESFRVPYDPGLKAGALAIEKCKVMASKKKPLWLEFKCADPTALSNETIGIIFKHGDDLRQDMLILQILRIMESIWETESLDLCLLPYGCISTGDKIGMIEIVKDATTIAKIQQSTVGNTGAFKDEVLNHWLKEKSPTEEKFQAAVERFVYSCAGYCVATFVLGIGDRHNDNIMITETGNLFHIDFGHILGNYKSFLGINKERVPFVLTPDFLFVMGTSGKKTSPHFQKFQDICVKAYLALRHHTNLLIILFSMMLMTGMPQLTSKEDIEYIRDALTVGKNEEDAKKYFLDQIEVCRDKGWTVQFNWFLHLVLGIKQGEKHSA
Another data set concerns patients with CLL. The note with it: pembrolizumab alone; cited from earlier work.
For data set [4], the target named is T1, PD-L1 (Homo sapiens, UniProt Q9NZQ7). The data set can be described thus: Octet antibody binding kinetics. On the procedure:
(§1) FIGS. 2A-2C are graphs showing the binding kinetics of exemplary anti-PD-L1 antibody CTI-48 against human PD-L1 (FIG. 2A), mouse PD-L1 (FIG. 2B), and cyno PD-L1 (FIG. 2C).
(§2) Octet data analysis was used in determining affinity measurements to assess antibody binding kinetics. 2 mL of the loading sample was prepared at 20 ug/mL (default concentration) in kinetic buffer. Aliquot at least 200 uL into a black 96-well plate. Concentration ranges for the sample were based on the estimated KD of the interaction (if available). […] A 7-point dilution was made into the sample column using kinetic buffer as the sample diluent. The last well of the sample column was used as a reference well later in data analysis, should only contain kinetic buffer.
(§3) Biosensors were hydrated in kinetic buffer (lx PBS, 0.1% BSA, 0.02% Tween20, 0.05% Sodium Azide) at room temperature for 10 minutes.
For orientation: Biolayer interferometry detects binding as a change in optical thickness at a sensor tip.

A further data set addresses cynoPDL1. The data set can be described thus: Octet antibody binding kinetics. Details: species or system cyno. The procedure:
as §1, §2, §3

In data set [5] the target is T1, PD-L1. The data set can be described thus: ForteBio affinity measurements. The note with it: 100 nM antigen, 1:1 binding model. The procedure:
ForteBio affinity measurements were performed generally as previously described (see, e.g., Estep, P. et al., mAbs 5:270-278 (2013)). Briefly, ForteBio affinity measurements were performed by loading IgGs on-line onto AHQ sensors. Sensors were equilibrated off-line in assay buffer for 30 minutes and then monitored on-line for 60 seconds for baseline establishment. Sensors with loaded IgGs were exposed to 100 nM antigen for 5 minutes; afterwards, they were transferred to assay buffer for 5 minutes for off-rate measurement. Kinetics were analyzed using the 1:1 binding model.

In another data set the test system is SUDHL-1 lymphoma cells. The experiment in a line: ADCC activity of anti-PD-L1 antibodies. In kind it is cell-based. The note with it: PD-L1+ lymphoma cells with primary NK cells. The procedure:
Reporter bioassays were performed in order to determine antibody-dependent cell—mediates cytotoxicity (ADCC) of the disclosed anti-PD-L1 antibodies. The assays utilized SUDHL-1 lymphoma cells and donor PBMCs. Various antibodies were tested at concentrations of 1 or 3 μg/ml.
The results of this study, which are shown for exemplary anti-PD-L1 antibody CTI-48 in FIG. 3, are represented by percent cytotoxicity following a 4 hour incubation with the disclosed antibodies.

The test system of the next data set is PD-1:PD-L1 ligation. The experiment in a line: immunoblockade reporter (NFAT) assay, PD1/PD-L1 Blockade Assay Kit. In kind it is cell-based. The note with it: Jurkat PD-1 Effector cells and aAPC PD-L1 cells.
Data set [6] concerns the target T2, binding of PD-L1 and B7.1 (Homo sapiens, UniProt Q9NZQ7).
T2 construct: purchased
The experiment in a line: PD-L1/B7.1 inhibitor screening assay. The note with it: PD-L1 coated plate, B7.1-biotin. The text has this: A commercially available assay kit was used to screen and profile the interaction of the disclosed antibodies and the PD-L1/B7.1 interaction. The kit came in a 96-well format with biotin-labeled B7-1 (CD80), purified PD-L1, streptavidin-labeled HRP, and assay buffer for 100 binding reactions. The kit was used to detect biotin-labeled B7.1 by streptavidin-HRP.
First, PD-L1 was coated on a 96-well plate. Next, either one of the disclosed antibodies, a positive control, a substrate control, or a blank was added to each well and incubated prior to the addition of B7.1-biotin. Finally, the plate was treated with streptavidin-HRP followed by addition of an HRP substrate to produce chemiluminescence, which can then be measured by a chemiluminescence reader.

Another data set has as its system IFN-γ production. The experiment in a line: IFN-γ production in mixed lymphocyte reaction (MLR) cultures. In kind it is cell-based. The note with it: 4-day MLR culture, antibodies at 10 μg/mL, over control levels. The procedure:
FIG. 6 is a bar graph showing the effect of the disclosed PD-L1 antibodies on IFN-γ production. Antibodies were dosed into mixed lymphocyte reaction (MLR) cultures at a concentration of 10 μg/mL. Data were normalized to vehicle control and are presented as combined mean+SEM (n=6). *p<0.05**p<0.01,***p<0.001 indicates statistical significance when compared to appropriate isotype control (hIgG1) using Ordinary one-way ANOVA with Dunnett's multiple comparison post-hoc test.
Antibodies were dosed into mixed lymphocyte reaction (MLR) cultures in order to determine the effects of the disclosed antibodies on IFN-γ production. The fold change in production of IFN-γ was determined after a 4-day MLR culture with antibodies at a concentration of 10 μg/mL. […] Further, many of the tested PD-L1 antibodies elicited a statistically significant increase in IFN-γ production, including a roughly 10-fold increase by CTI-33 and CTI-55 over control levels.

Data set [7] deals with T1, PD-L1. The note with it: cited from earlier work.
The target in data set [8] is T3, PD-L1 antigen of the ForteBio affinity measurement (Example 7) (UniProt Q9NZQ7 19-238, limits assumed). The data set can be described thus: ForteBio BLI, IgG on AHQ sensors, 100 nM antigen, 1:1 model.
T3 sequence (Q9NZQ7 19-238 limits assumed): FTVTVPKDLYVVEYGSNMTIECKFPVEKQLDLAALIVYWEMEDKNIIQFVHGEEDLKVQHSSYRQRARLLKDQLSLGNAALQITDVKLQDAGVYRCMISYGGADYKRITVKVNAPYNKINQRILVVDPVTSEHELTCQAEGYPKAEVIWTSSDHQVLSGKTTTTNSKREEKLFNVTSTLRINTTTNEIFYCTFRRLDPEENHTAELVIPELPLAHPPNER
Data set [9] has as its target T3, PD-L1 antigen of the ForteBio affinity …. The experiment in a line: ForteBio BLI, IgG on AHQ sensors, 100 nM antigen, 1:1 model, monovalent.
Data set [10] has as its target T4, PD-L1 expressed on transfected CHO cells (UniProt Q9NZQ7 19-290).
T4 construct: whole, on cells; also called PD-L1+cells; PD-L-1+cells
The data set can be described thus: competitive FACS on PD-L1+ CHO cells; competitor biotin-labeled PD-1 at 1 µg/ml.

T1 sequence (Q9NZQ7 19-290): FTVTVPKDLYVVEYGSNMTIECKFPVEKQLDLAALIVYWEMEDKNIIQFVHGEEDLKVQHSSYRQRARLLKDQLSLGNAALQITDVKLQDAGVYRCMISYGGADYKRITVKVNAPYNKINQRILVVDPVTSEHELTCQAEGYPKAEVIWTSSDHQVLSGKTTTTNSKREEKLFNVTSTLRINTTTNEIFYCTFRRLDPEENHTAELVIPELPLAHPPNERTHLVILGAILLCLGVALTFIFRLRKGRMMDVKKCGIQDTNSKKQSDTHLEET
T2 sequence (Q9NZQ7 19-238 limits assumed): as the sequence (Q9NZQ7 19-238 limits assumed) above
T4 sequence (Q9NZQ7 19-290): as the sequence (Q9NZQ7 19-290) above
Experimental for PD-1:PD-L1 ligation: Immunoblockade assays were performed using a PD1/PD-L1 Blockade Assay Kit (Promega, CS187111) in 96 well plates. Three major events occur in the assay. Event 1: TCR-mediated NFAT activation occurs when engineered Jurkat PD-1 Effector cells and aAPC (artificial antigen presenting cell) PD-L1 cells are engaged through TCR/TCR activator interaction. Event 2: Inhibition of NFAT signal by PD-1:PD-L1 ligation when no blocking antibodies are present. Event 3: Recovery of NFAT signal by addition of anti-PD-1 or anti-PD-L1 blocking antibody.
The day before assay, 25 mL of cell recovery medium (10% FBS/F-12) was made in 50 mL conical tubes for Thaw-and-Use PD-L1 cells by adding 2.5 mL FBS to 22.5 mL F-12. One vial of Thaw-and-Use PD-L1 cells (CS187103) was removed from freezer storage and transferred to the bench on dry ice. The vial was thawed in a 37° C. water bath until cells were just thawed (about 3-4 minutes). The cell suspension was gently mixed in the vial by pipetting up and down. All the cells (0.5 mL) were transferred to a tube labeled “PD-L1 cells” containing 14.5 mL cell recovery medium, followed by gentle inversions. […]
Thaw-and-Use PD-1 Effector cells (CS187105) were transferred into the assay plates, and the plates were incubated for six hours at 37° C. in CO2 incubator. […] Luminescence was measured in a POLARstar Omega plate reader with 0.5 second integration.

What is called Cmax is the peak of the concentration-time curve. By IC50 is commonly meant the concentration at which inhibition is half-maximal. A lower IC50 goes with greater potency in that assay. `CC(C)Oc1ccc(-c2nn([C@@H](C)c3oc4ccc(F)cc4c(=O)c3-c3cccc(F)c3)c3ncnc(N)c23)cc1F` [TGR-1202, (S)-2-(1-(4-amino-3-(3-fluoro-4-isopropoxyphenyl)-1H-pyrazolo[3,4-d]pyrim-idin-1-yl)ethyl-6-fluoro-3-(3-fluorophenyl)-4H-chromen-4-one p-toluenesulfonic acid (PTSA) salt]: the AUC(0-inf) in [1] (Fasting) was found to be 8390 ng·h/mL; in data set [1] (Fed), 14000 ng·h/mL; in data set [2] (Micronized Formulation), 12400 ng·h/mL; in data set [2] (Non-Micronized Formulation), 7720 ng·h/mL. The AUC(0-t) in [1] (Fasting) came to 6030 ng·h/mL; in data set [1] (Fed), 9690 ng·h/mL; in data set [2] (Micronized Formulation), 9440 ng·h/mL; in data set [2] (Non-Micronized Formulation) it was 5910 ng·h/mL. Besides, the peak concentration (Cmax) in [1] (Fasting) was found to be 177 ng/mL; in data set [1] (Fed), 483 ng/mL; in data set [2] (Micronized Formulation), 372 ng/mL; in data set [2] (Non-Micronized Formulation), 166 ng/mL. Further, the hepatic toxicity entry in data set [3] is given as “no reported hepatic toxicity”. For the same molecule, the tolerability entry in [3] was “well-tolerated”. The concentration for half-maximal inhibition (IC50) against PI3K isoforms (Human) α is more than 10000 nM; against PI3K isoforms (Human) β, 1120 nM; against PI3K isoforms (Human) γ it was 1060 nM.
Turning to “pembrolizumab: humanized monoclonal IgG4 kappa antibody directed against PD-1”, in the data set with patients with CLL, the ORR is on record as 0% and the “median PFS” value is reported as 2.4 months.

B1: CTI-48: fully human anti-PD-L1 IgG1; HCDR1-3 SEQ ID NO: 11, 19, 27; LCDR1-3 SEQ ID NO: 31, 33, 35 (antibody, chains of the INN, looked up, V domains shown)
VH: EVQLVQSGAEVKKPGSSVKVSCKASGGTFSRSAISWVRQAPGQGLEWMGVIIPAFGEANYAQKFQGRVTITADESTSTAYMELSSLRSEDTAVYYCARGRQMFGAGIDFWGQGTLVTVSS
VL: NFMLTQPHSVSESPGKTVTISCTRSSGSIDSNYVQWYQQRPGSAPTTVIYEDNQRPSGVPDRFSGSIDSSSNSASLTISGLKTEDEADYYCQSYDSNNRHVIFGGGTKLTVL
What is called Kd is the equilibrium constant for the complex coming apart. In general, koff refers to a measure of how fast the partners let go of each other. A lower koff goes with a long-lived complex. As for B1, the Kd amounted to 0.847 nM with PD-L1 [4], 0.555 nM at cynoPDL1 and 8.24e-10 M with PD-L1 [5] (read-out: IgG KD (M) Monovalent). Further, the kdis stood at 0.00061 L/s with PD-L1 [4] and 0.000635 L/s in the data set with cynoPDL1. Moreover, the kon was determined as 7.20E+05 l/Ms with PD-L1 [4], 1.14E+06 l/Ms with cynoPDL1 and 768000 M⁻¹ s⁻¹ with PD-L1 [5]. Also, the koff with PD-L1 [5] amounted to 0.000633 s⁻¹. Moreover, the ADCC activity entry in the data set on SUDHL-1 lymphoma cells is “exhibits ADCC activity”. Besides, in the data set on PD-1:PD-L1 ligation, the “EC50, recovery of NFAT signal” value turned out to be 0.0775 µg/mL. In addition, in data set [6], the “IC50 for binding inhibition” value came out at 0.1816 µg/mL. In addition, in the data set on IFN-γ production, the “fold change in production of IFN-γ” value was “comparable response to a clinical control mAb”. The “binding affinity for PD-L1” value with PD-L1 [7] was “sub-nanomolar”.

B2: CTI-07 (antibody, V domains shown)
VH: EVQLVQSGGEVKKPGASVKVSCKASGYTLSSHGITWVRQAPGQGLEWMGWISAHSGHASNAQKVEDRVTMTTDTSTNTAYMELRSLTADDTAVYYCARVHAALYYGMDVWGQGTLVTVSS
VL: LSVLTQPPSVSVAPGQTARITCGGNNIGSKGVHWYQQKPGQAPVLVVYDDSDRPSGIPERFSGSNSGNTATLTISRVEAGDEADYYCQVWDSSSDHWVFGGGTKLTVL
Consider B2, for which, in data set [8], the koff was 0.0392 s⁻¹ and the kon was found to be 492000 M⁻¹ s⁻¹. This molecule came in with a Kd in data set [9] of 79.7 nM.

B3: CTI-57 (antibody, V domains shown)
VH: B2 VH with H100W, A101R, Y105H
VL: B2 VL
In data set [8], B3 came in with a dissociation rate constant (koff) of 0.00045 s⁻¹ and a kon of 520000 M⁻¹ s⁻¹. This molecule returned a dissociation constant Kd in data set [9] of 0.86 nM.

B4: CTI-58 (antibody, V domains shown)
VH: B2 VH with Y105H
VL: B2 VL
Regarding B4, in data set [8], the off-rate (koff) worked out at 0.0111 s⁻¹ and the kon is 461000 M⁻¹ s⁻¹. The molecule further had a Kd in [9] of 24.1 nM. Also, the IC50 in data set [10] stood at 3.46 µg/mL.

(Values after US20190247399A1, “COMBINATION OF AN ANTI-CD20 ANTIBODY, PI3 KINASE-DELTA INHIBITOR, AND ANTI-PD-1 OR ANTI-PD-L1 ANTIBODY FOR TREATING HEMATOLOGICAL CANCERS” (TG Therapeutics, Inc., priority 2016, published 2019).)
